Assay results published in US20230056252A1 (Gilead, published 2023).
Positions count from the first letter of the chain named. Names may count otherwise.

Legend:
[1] = target: T1, MabSelect SuRe (engineered Protein A); experiment: 500 ml Expi293 expression, MabSelect SuRe capture and cation exchange; purified homodimer yield relative to parent
T1 construct: also called MabSelect SuRe column
Experimental: 500 ml of Expi293 cells were transfected with 0.5 mg DNA encoding selected huSP34 scFv-Fc Protein A knockout variants according to manufacturer's protocol. Four days post transfection, the cell-free clarified supernatant was collected and loaded to a MabSelect™ SuRe™ (Cytiva Life Sciences) column. Afterwards the column was washed with a low salt buffer of 25 mM Tris HCl pH 7.5, 25 mM NaCl for 10 column volumes (CV), then high salt wash of 25 mM Tris HCl pH 7.5, 500 mM NaCl for 5CV to remove non-specific binding, and finally washed with a low salt wash of 25 mM Tris HCl pH 7.5, 25 mM NaCl for 10CV. To elute the antibody, an isocratic elution step of 100 mM sodium acetate pH 3.7 was performed. The eluted pool was neutralized to pH 6.0 with 1 M Tris HCl pH 9.0, and subjected to a cation ion purification, HiTrap SP HP (Cytiva Life Sciences) to further remove impurities. The cation captured protein was washed with 10 mM sodium phosphate pH 7.0 for 10CV, then eluted in 0-30% gradient of 10 mM sodium phosphate pH 7.0, 1M NaCl for 50CV to separate the desired two targeting arm antibody (heterodimer) from the one targeted arm antibody (homodimer). Followed with gradient elution from 30-100% of 10 mM sodium phosphate pH 7.0, 1 M NaCl for 10CV to remove aggregation or homodimer in higher isoelectric point (pI). All proteins were formulated into 20 mM histidine pH 5.8 by dialysis, added additive of sucrose/tween-80, sterile filtered, and stored at 4° C. Concentration of the formulated protein was measured by A280. Purity was assessed as percent monodispersed by analytical size-exclusion chromatography. Identity of the bispecific antibody was determined by Mass Spec (MS).

[2] = target: T2, CD3 expressed on cell-surface of primary human T cells (human, UniProt P07766 23-207; P04234 22-171); experiment: cell-based or functional assay
[3] = target: T2, CD3 expressed on cell-surface of …; experiment: flow cytometry on human PBMCs, CD4+ cells, donor 3761
Experimental: (§1) Briefly, peripheral blood mononuclear cells (PBMCs) were incubated with different concentrations of HIV×CD3 bispecific molecules for 1 hour at RT. […] Cells were then washed, fixed/permeabilized, and analyzed using BD LSRFortessa according to the manufacturer's protocol. The percentage of α-huIgG-APC-positive CD4+ and CD8+ T cells and the mean fluorescence intensity of the α-huIgG-APC of CD4+ and CD8+ cells were collected, and data analyzed using GraphPad Prism.
(§2) Binding experiments were performed using PBMCs from two healthy human donors.

[4] = target: T2, CD3 expressed on cell-surface of …; experiment: flow cytometry on human PBMCs, CD4+ cells, donor 4574
Experimental: as §1, §2

[5] = target: T2, CD3 expressed on cell-surface of …; experiment: flow cytometry on human PBMCs, CD8+ cells, donor 3761
Experimental: as §1, §2

[6] = target: T2, CD3 expressed on cell-surface of …; experiment: flow cytometry on human PBMCs, CD8+ cells, donor 4574
Experimental: as §1, §2

[7] = target: T2, CD3 expressed on cell-surface of …; experiment: flow cytometry on PBMCs, % anti-huIgG+ CD4+ cells, donor hu 151
[8] = target: T2, CD3 expressed on cell-surface of …; experiment: flow cytometry on PBMCs, % anti-huIgG+ CD4+ cells, donor hu 340
Experimental: (§3) Briefly, PBMCs from healthy human donors and healthy rhesus or cynomolgus monkey donors were incubated with different concentrations of HIV×CD3 bispecific molecules for 1 hour at RT. […] Cells were then washed, fixed/permeabilized, and analyzed on BD LSRFortessa. The percentage of α-huIgG-APC-positive CD4+ and CD8+ T cells and the mFI of the α-huIgG-APC of CD4+ and CD8+ cells were collected, and data analyzed using GraphPad Prism.

[9] = target: T2, CD3 expressed on cell-surface of …; experiment: flow cytometry on PBMCs, % anti-huIgG+ CD8+ cells, donor hu 151
Experimental: as §3

[10] = target: T2, CD3 expressed on cell-surface of …; experiment: flow cytometry on PBMCs, % anti-huIgG+ CD8+ cells, donor hu 340
Experimental: as §3

[11] = target: CD3 on rhesus monkey T cells in PBMCs (rhesus monkey); experiment: flow cytometry on PBMCs, % anti-huIgG+ CD4+ cells, donor rh 3483
Sequence of CD3 on rhesus monkey T cells in PBMCs (rhesus monkey) (P16003 26-458): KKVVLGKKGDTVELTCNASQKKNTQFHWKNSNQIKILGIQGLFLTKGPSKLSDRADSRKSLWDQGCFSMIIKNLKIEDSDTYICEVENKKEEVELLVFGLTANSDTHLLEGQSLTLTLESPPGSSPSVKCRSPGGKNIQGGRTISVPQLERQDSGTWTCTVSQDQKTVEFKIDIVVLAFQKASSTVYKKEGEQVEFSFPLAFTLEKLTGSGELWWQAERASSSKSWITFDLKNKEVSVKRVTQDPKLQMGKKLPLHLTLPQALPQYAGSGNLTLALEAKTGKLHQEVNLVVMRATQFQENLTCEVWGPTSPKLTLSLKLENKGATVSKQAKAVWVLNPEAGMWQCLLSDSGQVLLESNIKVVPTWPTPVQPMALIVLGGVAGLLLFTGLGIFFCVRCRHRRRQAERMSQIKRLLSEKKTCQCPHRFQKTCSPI

[12] = target: CD3 on rhesus monkey T cells in PBMCs (rhesus monkey); experiment: flow cytometry on PBMCs, % anti-huIgG+ CD4+ cells, donor rh 3563
[13] = target: CD3 on rhesus monkey T cells in PBMCs (rhesus monkey); experiment: flow cytometry on PBMCs, % anti-huIgG+ CD8+ cells, donor rh 3483
[14] = target: CD3 on rhesus monkey T cells in PBMCs (rhesus monkey); experiment: flow cytometry on PBMCs, % anti-huIgG+ CD8+ cells, donor rh 3563
[15] = target: T3, biotinylated CD3 epsilon: delta heterodimer protein (Amsbio AMS.CDD-H52WO) (Homo sapiens (Human), UniProt P07766 23-126; P04234 22-105); experiment: BLI (Octet), huSP34 variant in Fab format
Experimental: (§4) The CD3 binding kinetics of the purified huSP34 Fabs were determined using OctetRed384 (Pall ForteBio, CA) biolayer interferometry (BLI). […] Streptavidin (SA) coated biosensors tips (Pall ForteBio, CA) were used to capture biotinylated CD3 epsilon: delta heterodimer and typical immobilization levels captured on the SA sensors were 1 nm which approximately translates to 300 ng/ml of captured protein. For kinetic measurements biosensors were first pre-wetted with assay buffer for 10 minutes to remove protective sucrose coating followed by the recommended regeneration conditions for standardization of the biosensor surface for the experiment. In order to load the biosensors with antigen, 300 ng/ml of biotinylated CD3 epsilon: delta heterodimer protein (Amsbio AMS.CDD-H52WO) was immobilized on the SA sensor for 900 seconds. The CD3 loaded biosensors were then blocked with 20 ug/ml biocytin (sigma) for 200 seconds and then dipped into assay buffer containing wells for 200 seconds to remove any non-specific protein or unbound CD3 heterodimer.
(§5) CD3 loaded and biocytin blocked biosensors were then transferred into fresh assay buffer for 200 seconds to collect a baseline read. Kinetic measurements for anti-CD3 Fab and bispecific antibody binding were performed by dipping the CD3-coated biosensors into wells containing multiple concentrations of Fab or Ab (0-300 nM) for 100 seconds followed by a 300 second dissociation time by transferring the biosensors into assay buffer containing wells. The CD3 loaded sensors were then regenerated for the next kinetic measurement. Biosensors were generated by removing bound Fabs or Ab from immobilized CD3 on SA biosensors. Regeneration conditions used consisted of 3 cycles of 5 seconds of dipping the biosensors in Regeneration Buffer (10 mM Glycine HCl pH 1.5) followed by Assay Buffer (10 mM sodium phosphate pH 7.4, 140 mM Sodium Chloride, 0.005% Tween20 with 0.2% BSA).

[16] = target: T3, biotinylated CD3 epsilon: delta …; experiment: BLI (Octet), corresponding huSP34 Fab variant
Experimental: as §4, §5

[17] = target: T2, CD3 expressed on cell-surface of …; experiment: flow cytometry competition vs murine SP34-AF488 on human T cells, n = 1
Experimental: (§6) Binding of humanized SP34 Fab variants to CD3 expressed on cell-surface of primary human T cells was evaluated in a flow cytometry-based competition assay.
(§7) A second round of huSP34 Fab variants were characterized using the same flow cytometry-based competition assay as described above.

[18] = target: T2, CD3 expressed on cell-surface of …; experiment: flow cytometry competition vs murine SP34-AF488 on human T cells, n = 2
Experimental: as §6, §7

[19] = target: T2, CD3 expressed on cell-surface of …; experiment: flow cytometry competition vs murine SP34-AF488 on human T cells, average
Experimental: as §6, §7

B1: huSP34.14.8 scFv AAS + SAV + R (Fc fusion)
chain: EVQLVESGGGLVQPGGSLSLSCAASGFTFSTYAMNWVRQAPGKGLEWVGRIRSKYNNYATYYAASVKGRFTISRDDSKNTLYLQMNSLRTEDTAVYYCVRHGNFGHSYVSWFAYWGQGTLVTVSSGGGGSGGGGSGGGGSGGGGSQAVVTQEPSLTVSPGGTVTLTCGSSTGAVTTGHYANWVQQKPGQAPRGLIGGTNKRAPGVPARFSGSLLGGKAALTISGAQPEDEAEYYCALWYSNRWVFGGGTKLTVLEPKSSDKTHTCPPCPAPEAAGGPSVFLFPPKPKDTLMISRTPEVTCVVVDVSHEDPEVKFNWYVDGVEVHNAKTKPREEQYNSTYRVVSVLTVLHQDWLNGKEYKCKVSNKALPASIEKTISKAKGQPREPQVYTLPPSREEMTKNQVSLSCAVKGFYPSDIAVEWESNGQPENNYKTTPPVLDSDGSFFLVSKLTVDKSRWQQGNVFSCSVMHEALHNRYTQKSLSLSPGK
notes: also called R19S
scFv-Fc Homodimer Yield Relative to WT (e.g. Protein A binding) [1]: 21%

B2: huSP34.25.8 scFv AAS + SAV + R (Fc fusion)
chain: B1 chain with S19R, T60A, G68S
notes: also called T57A, G65S; T57A + G65S
scFv-Fc Homodimer Yield Relative to WT (e.g. Protein A binding) [1]: 1%

B3: huSP34.33.8 scFv AAS + SAV + R (Fc fusion)
chain: B1 chain with S19R, G68S, Q84E
notes: also called G65S, Q81E; G65S + Q81E
scFv-Fc Homodimer Yield Relative to WT (e.g. Protein A binding) [1]: 0.7%

B4: huSP34.28.8 scFv AAS + SAV + R (Fc fusion)
chain: B1 chain with G68S
notes: also called R19S, G65S; R19S + G65S
scFv-Fc Homodimer Yield Relative to WT (e.g. Protein A binding) [1]: 1.5%

B5: huSP34.19.8 scFv AAS + SAV + R (Fc fusion)
chain: B1 chain with S19R, Q84E
notes: also called Q81E
scFv-Fc Homodimer Yield Relative to WT (e.g. Protein A binding) [1]: 86%

B6: huSP34.27.8 scFv AAS + SAV + R (Fc fusion)
chain: B1 chain with T60E
notes: also called R19S, T57E; R19S + T57E
scFv-Fc Homodimer Yield Relative to WT (e.g. Protein A binding) [1]: 8%

B7: huSP34.26.8 scFv AAS + SAV + R (Fc fusion)
chain: B1 chain with T60A
notes: also called R19S, T57A; R19S + T57A
scFv-Fc Homodimer Yield Relative to WT (e.g. Protein A binding) [1]: 8%

B8: hPGT121.66 AAS + W/huSP34.1.3 scFv AAS + SAV + RF (bispecific antibody, human IgG1, lambda, L234A L235A)
chain: not shown
heavy: QMQLQESGPGLVKPSETLSLTCSVSGASISDSYWSWIRRSPGKGLEWIGYVHKSGDTNYNPSLKSRVHLSLDTSKNQVSLSLTGVTAADSGKYYCARTLHGRRIYGIVAFNEWFTYFYMDVWGTGTQVTVSSASTKGPSVFPLAPSSKSTSGGTAALGCLVKDYFPEPVTVSWNSGALTSGVHTFPAVLQSSGLYSLSSVVTVPSSSLGTQTYICNVNHKPSNTKVDKKVEPKSCDKTHTCPPCPAPEAAGGPSVFLFPPKPKDTLMISRTPEVTCVVVDVSHEDPEVKFNWYVDGVEVHNAKTKPREEQYNSTYRVVSVLTVLHQDWLNGKEYKCKVSNKALPASIEKTISKAKGQPREPQVYTLPPSREEMTKNQVSLWCLVKGFYPSDIAVEWESNGQPENNYKTTPPVLDSDGSFFLYSKLTVDKSRWQQGNVFSCSVMHEALHNHYTQKSLSLSPGK
light: not shown
killing EC50, primary HIV-infected CD4+ cells, PBMC effector cells, isolate 657 [2]: 1.61 µg/mL | killing EC50, primary HIV-infected CD4+ cells, PBMC effector cells, isolate 7552 [2]: 0.107 µg/mL | EC50 [3]: 0.32 µg/mL | EC50 [4]: 0.33 µg/mL | EC50 [5]: 0.36 µg/mL | EC50 [6]: 0.35 µg/mL | EC50 [7]: 0.41 µg/mL | EC50 [8]: 0.42 µg/mL | EC50 [9]: 0.44 µg/mL | EC50 [10]: 0.68 µg/mL | EC50 [11]: 0.33 µg/mL | EC50 [12]: 0.4 µg/mL | EC50 [13]: 0.55 µg/mL | EC50 [14]: 1.02 µg/mL

B9: hPGT121.66 AAS + W/huSP34.34.12scFv AAS + SAV + R (bispecific antibody, human IgG1, lambda, L234A L235A)
chain: B1 chain with S19R, S30N, T80S, R89K, V95M, E152P, G204W, V205T, L214S
heavy: B8 heavy
light: not shown
EC50 [7]: 0.51 µg/mL | EC50 [8]: 0.57 µg/mL | EC50 [9]: 0.85 µg/mL | EC50 [10]: 0.88 µg/mL | EC50 [11]: 0.46 µg/mL | EC50 [12]: 0.68 µg/mL | EC50 [13]: 0.93 µg/mL | EC50 [14]: 1.24 µg/mL

B10: hPGT121.66 AAS + W/huSP34.3.4 scFv AAS + SAV + RF (bispecific antibody, human IgG1, lambda, L234A L235A)
chain: EVQLVESGGGLVQPGGSLRLSCAASGFTFNTYAMNWVRQAPGKGLEWVGRIRSKYNNYATYYADSVKGRFTISRDDSKNSLYLQMNSLRTEDTAVYYCVRHGNFGHSYVSWFAYWGQGTLVTVSSGGGGSGGGGSGGGGSGGGGSQAVVTQEPSLTVSPGGTVTLTCGSSTGAVTTSHYANWVQQKPGQAPRGLIGGTSKRAPWTPARFSGSLLGGKAALTLSGAQPEDEAEYYCALWYSALWVFGGGTKLTVLEPKSSDKTHTCPPCPAPEAAGGPSVFLFPPKPKDTLMISRTPEVTCVVVDVSHEDPEVKFNWYVDGVEVHNAKTKPREEQYNSTYRVVSVLTVLHQDWLNGKEYKCKVSNKALPASIEKTISKAKGQPREPQVYTLPPSREEMTKNQVSLSCAVKGFYPSDIAVEWESNGQPENNYKTTPPVLDSDGSFFLVSKLTVDKSRWQQGNVFSCSVMHEALHNRFTQKSLSLSPGK
heavy: B8 heavy
light: not shown
notes: also called 258
EC50 [3]: 5.1 µg/mL | EC50 [4]: 5.7 µg/mL | EC50 [5]: 1.3 µg/mL | EC50 [6]: 4.8 µg/mL

B11: hPGT121.66 AAS + W/huSP34.13.10 scFv AAS + SAV + RF (bispecific antibody, human IgG1, lambda, L234A L235A)
chain: B1 chain with S19R, E152P, L214S, Y475F
heavy: B8 heavy
light: not shown
killing EC50, primary HIV-infected CD4+ cells, PBMC effector cells, isolate 657 [2]: 0.275 µg/mL | killing EC50, primary HIV-infected CD4+ cells, PBMC effector cells, isolate 7552 [2]: 0.011 µg/mL | EC50 [3]: 0.045 µg/mL | EC50 [4]: 0.037 µg/mL | EC50 [5]: 0.095 µg/mL | EC50 [6]: 0.062 µg/mL

B12: hPGT121.66 AAS + W/huSP34.3.6scFv AAS + SAV + RF (bispecific antibody, human IgG1, lambda, L234A L235A)
chain: B10 chain with E152P, S177G, K200N, W204G, T205V, L214S, L222I, L242R
heavy: B8 heavy
light: not shown
notes: also called 259
killing EC50, primary HIV-infected CD4+ cells, PBMC effector cells, isolate 657 [2]: 2.37 µg/mL | killing EC50, primary HIV-infected CD4+ cells, PBMC effector cells, isolate 7552 [2]: 0.123 µg/mL | EC50 [3]: 0.65 µg/mL | EC50 [4]: 1.4 µg/mL | EC50 [5]: 0.48 µg/mL | EC50 [6]: 1.1 µg/mL

B13: hPGT121.66 AAS + W/huSP34.34.11 scFv AAS + SAV + R (bispecific antibody, human IgG1, lambda, L234A L235A)
chain: B1 chain with S19R, S30N, T80S, R89K, V95M, I222L, R242L
heavy: B8 heavy
light: not shown
EC50 [7]: 0.08 µg/mL | EC50 [8]: 0.09 µg/mL | EC50 [9]: 0.1 µg/mL | EC50 [10]: 0.13 µg/mL | EC50 [11]: 0.06 µg/mL | EC50 [12]: 0.07 µg/mL | EC50 [13]: 0.11 µg/mL | EC50 [14]: 0.22 µg/mL

B14: huSP34.13.10 Fab-HF (Fab, V domains shown)
VH: EVQLVESGGGLVQPGGSLRLSCAASGFTFSTYAMNWVRQAPGKGLEWVGRIRSKYNNYATYYAASVKGRFTISRDDSKNTLYLQMNSLRTEDTAVYYCVRHGNFGHSYVSWFAYWGQGTLVTVSS
VL: QAVVTQPPSLTVSPGGTVTLTCGSSTGAVTTGHYANWVQQKPGQAPRGLIGGTNKRAPGVPARFSGSLSGGKAALTISGAQPEDEAEYYCALWYSNRWVFGGGTKLTVL
Kd [15]: 1.8 nM | Kd [16]: 1.8 nM | IC50 [17]: 0.35 µg/mL | IC50 [18]: 0.16 µg/mL | IC50 [19]: 0.25 µg/mL
